Results reported in patent US20210009713A1 (MIDWESTERN UNIVERSITY, published 2021).
Where two headings read alike, the source gives them in different places.

T1: aspartyl (asparaginyl) β-hydroxylase (ASPH) (UniProt Q12797 75-758, limits assumed)
T1 construct: also called ASPH protein
T1 sequence (looked up): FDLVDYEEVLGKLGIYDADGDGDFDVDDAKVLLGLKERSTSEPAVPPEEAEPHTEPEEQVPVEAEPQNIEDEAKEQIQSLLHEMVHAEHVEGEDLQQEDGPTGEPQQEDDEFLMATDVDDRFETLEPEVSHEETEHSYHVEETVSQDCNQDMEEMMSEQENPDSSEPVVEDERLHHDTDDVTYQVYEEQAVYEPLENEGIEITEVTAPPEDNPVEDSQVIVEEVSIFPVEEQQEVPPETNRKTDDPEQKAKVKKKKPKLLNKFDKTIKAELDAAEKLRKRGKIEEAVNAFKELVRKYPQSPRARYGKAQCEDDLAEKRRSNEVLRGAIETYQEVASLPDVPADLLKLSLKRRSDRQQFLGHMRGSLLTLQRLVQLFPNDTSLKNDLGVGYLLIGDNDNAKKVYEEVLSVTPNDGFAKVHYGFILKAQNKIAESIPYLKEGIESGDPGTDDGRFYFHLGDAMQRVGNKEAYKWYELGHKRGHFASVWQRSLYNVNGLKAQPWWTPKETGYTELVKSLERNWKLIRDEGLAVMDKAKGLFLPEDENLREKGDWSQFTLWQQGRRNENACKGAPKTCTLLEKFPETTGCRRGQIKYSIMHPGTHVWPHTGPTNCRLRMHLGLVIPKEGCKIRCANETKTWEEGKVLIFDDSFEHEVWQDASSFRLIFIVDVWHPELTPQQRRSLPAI


Biological target: T1, aspartyl (asparaginyl) β-hydroxylase …
Test: SPR, antibody captured via Protein G, ASPH as analyte
Method: The interaction between ASPH and a set of 6 antibodies were characterized by Essai Sciences LLC (Stillwater, Okla.) on a SensiQ Pioneer SPR Platform. The COOH2 sensor chip, which contains a planar dextran surface, was used for target immobilization. The buffer system was 10 mM HEPES, pH 7.4, 150 mM NaCl, and 0.01% Tween-20.
All channels of a COOH2 sensor chip were activated with a five-minute injection of 40 mM EDC and 10 mM NHS. Protein G was then injected across channels 1 and 2. 1 M ethanolamine, pH 8.0 was then injected across all three channels. Approximately 1000 response units of Protein G were captured on both channels 1 and 2 (FIG. 18). For each antibody-ASPH interaction, the antibody was injected on channel 1, leaving channels 2 and 3 as a Protein G reference and empty channel reference, respectively. After antibody capture, ASPH was injected at a single concentration. Following injection of ASPH, all three channels were injected with 10 mM NaOH for one minute to regenerate the Protein G surface. This was done twice for each antibody, at each tested concentration of ASPH.

Row | Kd [nM] | koff [s⁻¹] | kon [M⁻¹ s⁻¹] | Kd (record 2) [nM] | Binder
1 | 61.9 | 0.00185 | 29800 | 60 | 9H2/9K3 (antibody, part only; not given: kappa light chain, V domains shown, part only) VH: QSLEESGGDLVKPGASLTLTCKASGFDFISNAMCWVRQAPGKGPEWIACIDNGDGSTDYATWAKGRFTISKTSSTTVTLQMTSLTAADTATYFCTRNFNLWGQGTLTVSSGQPKAPSVFPLAP
2 | 144 | 0.00243 | 16800 |  | 5H4/5K3 (antibody, V domains shown, The entries are translated variable regions that still carry the leader and the start of the constant region (GQPK... / GDPV...)) VH: QSLEESGGDLVKPGASLTLTCKASGFDFSSNAMCWVRQAPGKGPEWIACIDNGDGSTDYATWAKGRFTISKTSSTTVTLQMTSLTAADTATYFCTRNFNLWGQGTLVTVSS VL: AQVLTQTASSVSAAVGGTVTISCQSSQSVYDNNRLAWFQQKPGQPPKLLIYETSKLASGVPLRFKGSGSGTQFTLTISDLECDDAATYYCLGSYSGYIYTFGGGTEVVVKG
